This is an account of results in PMC7956748 (2021).

For assay [1], the target named is T1, transforming growth factor-beta 1 (TGF-β1) (UniProt P01137 279-390). Kind of assay: SPR. For orientation: Surface plasmon resonance follows binding to a sensor surface in real time, without labels.
The target of assay [2] is T1, transforming growth factor-beta 1 …. Kind of assay: SPR. This is another data set of the same source.

Usually koff stands for a measure of how fast the partners let go of each other. A lower koff goes with slow dissociation. As usually defined, the Kd is a measure of binding affinity in units of concentration.

T1 sequence (P01137 279-390): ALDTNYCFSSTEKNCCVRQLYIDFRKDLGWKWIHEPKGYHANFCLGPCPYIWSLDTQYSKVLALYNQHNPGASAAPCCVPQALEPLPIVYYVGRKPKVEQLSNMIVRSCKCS

B1: thrombospondin-4 (TSP-4), recombinant full-length rat (natural protein)
chain: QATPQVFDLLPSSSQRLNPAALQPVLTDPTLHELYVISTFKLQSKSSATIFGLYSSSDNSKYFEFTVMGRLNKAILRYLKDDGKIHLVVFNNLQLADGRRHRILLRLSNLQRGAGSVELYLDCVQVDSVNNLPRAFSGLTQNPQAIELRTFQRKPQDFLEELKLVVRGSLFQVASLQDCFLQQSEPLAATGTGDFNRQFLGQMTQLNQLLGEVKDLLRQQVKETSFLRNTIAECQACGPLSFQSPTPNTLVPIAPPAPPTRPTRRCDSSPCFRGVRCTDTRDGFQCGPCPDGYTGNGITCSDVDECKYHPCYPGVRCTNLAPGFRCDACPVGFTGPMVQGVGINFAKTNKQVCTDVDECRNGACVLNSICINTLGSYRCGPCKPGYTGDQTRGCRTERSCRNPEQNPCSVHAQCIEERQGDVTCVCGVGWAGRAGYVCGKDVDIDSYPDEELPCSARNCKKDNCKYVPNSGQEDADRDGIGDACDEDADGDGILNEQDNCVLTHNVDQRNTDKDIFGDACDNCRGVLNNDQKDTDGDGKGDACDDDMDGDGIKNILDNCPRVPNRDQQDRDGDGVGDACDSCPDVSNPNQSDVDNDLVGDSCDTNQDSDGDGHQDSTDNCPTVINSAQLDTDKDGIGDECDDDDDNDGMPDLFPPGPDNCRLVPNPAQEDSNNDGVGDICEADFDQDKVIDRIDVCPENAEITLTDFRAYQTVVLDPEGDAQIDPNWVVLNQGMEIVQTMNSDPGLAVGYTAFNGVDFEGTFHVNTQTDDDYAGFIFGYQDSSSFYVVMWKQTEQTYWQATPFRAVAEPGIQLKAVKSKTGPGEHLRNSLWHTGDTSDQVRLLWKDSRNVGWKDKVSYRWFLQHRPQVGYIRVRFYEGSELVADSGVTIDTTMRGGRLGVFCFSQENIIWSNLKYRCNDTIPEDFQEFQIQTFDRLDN
Regarding B1, in assay [1], the koff is 0.000889 s⁻¹. In assay [2], this molecule yielded a Kd of 6.3 nM.

B2: cartilage oligomeric matrix protein (COMP), recombinant full-length rat (natural protein)
chain: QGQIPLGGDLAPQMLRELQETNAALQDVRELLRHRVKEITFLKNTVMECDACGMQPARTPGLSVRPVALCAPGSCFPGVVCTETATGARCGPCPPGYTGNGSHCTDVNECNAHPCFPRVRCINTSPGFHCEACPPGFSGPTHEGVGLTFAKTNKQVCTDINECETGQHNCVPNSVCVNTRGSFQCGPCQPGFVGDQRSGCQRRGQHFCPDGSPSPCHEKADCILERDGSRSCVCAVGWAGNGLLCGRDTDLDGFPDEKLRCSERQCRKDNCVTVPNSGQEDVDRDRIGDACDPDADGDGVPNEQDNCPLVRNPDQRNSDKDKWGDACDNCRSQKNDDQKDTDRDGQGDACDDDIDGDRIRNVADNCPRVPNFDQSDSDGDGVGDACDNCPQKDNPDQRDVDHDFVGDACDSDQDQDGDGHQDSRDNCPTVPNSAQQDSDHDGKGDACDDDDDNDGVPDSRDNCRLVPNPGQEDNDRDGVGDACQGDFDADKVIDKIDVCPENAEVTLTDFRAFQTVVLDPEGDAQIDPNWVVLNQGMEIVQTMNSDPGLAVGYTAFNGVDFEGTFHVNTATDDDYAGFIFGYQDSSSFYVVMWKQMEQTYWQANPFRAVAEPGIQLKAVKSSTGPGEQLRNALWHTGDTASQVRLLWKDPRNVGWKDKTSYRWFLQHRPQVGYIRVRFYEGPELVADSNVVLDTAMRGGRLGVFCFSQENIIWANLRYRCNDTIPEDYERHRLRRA
As to B2, the koff in assay [1] was determined as 0.000392 s⁻¹. The dissociation constant Kd in assay [2] amounted to 22.9 nM.
